From US20230365662A1
Positions count from the first letter of the chain named. Numbers in names are those of the source. Where “and” joins values, the source holds several entries; their conditions need not be identical. Identical values can stand only once.

B1: KB001 mouse Fab FASEBA VH I31F (Fab, V domains shown)
VH: EVQLKQSGPGLVAPSQSLSITCTVSGFSLSFYSVHWVRQPPGKGLEWLGMIWGGGSSDYNSALKSRLSISKDNSKSQVFLKMNSLQTDDTAMYYCARNGNFYAMDYWGQGTSVTVSS
VL: QIVLTQSPAIMSASLGERVTMTCTASSSVSSSFLHWYQQKPGSSPQLWIYSTSNLASGVPARFSGSGSGTSYSLTISSMEAEDAATYYCHQYHHSPYIYTFGGGTKLEIK
B2: KB001 mouse Fab FASEBA VH Y59R (Fab, V domains shown)
VH: B1 VH with F31I, Y59R
VL: B1 VL
B3: KB001 mouse Fab FASEBA VH N60Q (Fab, V domains shown)
VH: B1 VH with F31I, N60Q
VL: B1 VL
B4: KB001 mouse Fab FASEBA VH S56M (Fab, V domains shown)
VH: B1 VH with F31I, S56M
VL: B1 VL
B5: KB001 mouse Fab FASEBA VH S56T (Fab, V domains shown)
VH: B1 VH with F31I, S56T
VL: B1 VL
B6: KB001 mouse Fab FASEBA VH H35V (Fab, V domains shown)
VH: B1 VH with F31I, H35V
VL: B1 VL
B7: KB001 mouse Fab FASEBA VH S56N (Fab, V domains shown)
VH: B1 VH with F31I, S56N
VL: B1 VL
B8: KB001 mouse Fab FASEBA VH I51Q/M92I (Fab, V domains shown)
VH: B1 VH with F31I, I51Q, M92I
VL: B1 VL
B9: KB001 mouse Fab FASEBA VH N60P (Fab, V domains shown)
VH: B1 VH with F31I, N60P
VL: B1 VL
B10: KB001 mouse Fab FASEBA VH S57R (Fab, V domains shown)
VH: B1 VH with F31I, S57R
VL: B1 VL
B11: KB001 mouse Fab FASEBA VH Y59M/S571 (Fab, V domains shown)
VH: B1 VH with F31I, S57I, Y59M
VL: B1 VL
B12: KB001 mouse Fab FASEBA VH N60S (Fab, V domains shown)
VH: B1 VH with F31I, N60S
VL: B1 VL
B13: KB001 mouse Fab FASEBA VH I31L (Fab, V domains shown)
VH: B1 VH with F31L
VL: B1 VL
B14: KB001 mouse Fab FASEBA VH V34M (Fab, V domains shown)
VH: B1 VH with F31I, V34M
VL: B1 VL
B15: KB001 mouse Fab FASEBA VH Y32W (Fab, V domains shown)
VH: B1 VH with F31I, Y32W
VL: B1 VL
B16: KB001 mouse Fab FASEBA VH N60T (Fab, V domains shown)
VH: B1 VH with F31I, N60T
VL: B1 VL
B17: KB001 mouse Fab FASEBA VH S61Y (Fab, V domains shown)
VH: B1 VH with F31I, S61Y
VL: B1 VL
B18: KB001 mouse Fab FASEBA VH G53P (Fab, V domains shown)
VH: B1 VH with F31I, G53P
VL: B1 VL
B19: KB001 mouse Fab FASEBA VH Y32S (Fab, V domains shown)
VH: B1 VH with F31I, Y32S
VL: B1 VL
B20: KB001 mouse Fab FASEBA VH G55D (Fab, V domains shown)
VH: B1 VH with F31I, G55D
VL: B1 VL
B21: KB001 mouse Fab FASEBA VH Y32F (Fab, V domains shown)
VH: B1 VH with F31I, Y32F
VL: B1 VL
B22: KB001 mouse Fab FASEBA VH D58S (Fab, V domains shown)
VH: B1 VH with F31I, D58S
VL: B1 VL
B23: KB001 mouse Fab FASEBA VH D58G (Fab, V domains shown)
VH: B1 VH with F31I, D58G
VL: B1 VL
B24: KB001 mouse Fab FASEBA VH Y59T (Fab, V domains shown)
VH: B1 VH with F31I, Y59T
VL: B1 VL
B25: KB001 mouse Fab FASEBA VH Y59F (Fab, V domains shown)
VH: B1 VH with F31I, Y59F
VL: B1 VL
B26: KB001 mouse Fab FASEBA VH I31P (Fab, V domains shown)
VH: B1 VH with F31P
VL: B1 VL
B27: KB001 mouse Fab FASEBA VH S61W (Fab, V domains shown)
VH: B1 VH with F31I, S61W
VL: B1 VL
B28: KB001 mouse Fab FASEBA VH G53S (Fab, V domains shown)
VH: B1 VH with F31I, G53S
VL: B1 VL
B29: KB001 mouse Fab FASEBA VH I31N (Fab, V domains shown)
VH: B1 VH with F31N
VL: B1 VL
B30: KB001 mouse Fab FASEBA VH I31Q (Fab, V domains shown)
VH: B1 VH with F31Q
VL: B1 VL
B31: KB001 mouse Fab FASEBA VH S57T (Fab, V domains shown)
VH: B1 VH with F31I, S57T
VL: B1 VL
B32: KB001 mouse Fab FASEBA VH S56L (Fab, V domains shown)
VH: B1 VH with F31I, S56L
VL: B1 VL
B33: KB001 mouse Fab FASEBA VH S56E (Fab, V domains shown)
VH: B1 VH with F31I, S56E
VL: B1 VL
B34: KB001 mouse Fab FASEBA VH I51V (Fab, V domains shown)
VH: B1 VH with F31I, I51V
VL: B1 VL
B35: KB001 mouse Fab FASEBA VH Y59K (Fab, V domains shown)
VH: B1 VH with F31I, Y59K
VL: B1 VL
B36: KB001 mouse Fab FASEBA VH I31W (Fab, V domains shown)
VH: B1 VH with F31W
VL: B1 VL
B37: KB001 mouse Fab FASEBA VH G55N (Fab, V domains shown)
VH: B1 VH with F31I, G55N
VL: B1 VL
B38: KB001 mouse Fab FASEBA VH S56P (Fab, V domains shown)
VH: B1 VH with F31I, S56P
VL: B1 VL
B39: KB001 mouse Fab FASEBA VH S57H (Fab, V domains shown)
VH: B1 VH with F31I, S57H
VL: B1 VL
B40: KB001 mouse Fab FASEBA VH S57M (Fab, V domains shown)
VH: B1 VH with F31I, S57M
VL: B1 VL
B41: KB001 mouse Fab FASEBA VH S61R (Fab, V domains shown)
VH: B1 VH with F31I, S61R
VL: B1 VL
B42: KB001 mouse Fab FASEBA VH Y32N (Fab, V domains shown)
VH: B1 VH with F31I, Y32N
VL: B1 VL

biological target: HRgpA-6H (Porphyromonas gingivalis) (UniProt P28784); assay: ELISA on coated HRgpA-6H
Chain of UniProt P28784 (P28784 228-991 limits assumed): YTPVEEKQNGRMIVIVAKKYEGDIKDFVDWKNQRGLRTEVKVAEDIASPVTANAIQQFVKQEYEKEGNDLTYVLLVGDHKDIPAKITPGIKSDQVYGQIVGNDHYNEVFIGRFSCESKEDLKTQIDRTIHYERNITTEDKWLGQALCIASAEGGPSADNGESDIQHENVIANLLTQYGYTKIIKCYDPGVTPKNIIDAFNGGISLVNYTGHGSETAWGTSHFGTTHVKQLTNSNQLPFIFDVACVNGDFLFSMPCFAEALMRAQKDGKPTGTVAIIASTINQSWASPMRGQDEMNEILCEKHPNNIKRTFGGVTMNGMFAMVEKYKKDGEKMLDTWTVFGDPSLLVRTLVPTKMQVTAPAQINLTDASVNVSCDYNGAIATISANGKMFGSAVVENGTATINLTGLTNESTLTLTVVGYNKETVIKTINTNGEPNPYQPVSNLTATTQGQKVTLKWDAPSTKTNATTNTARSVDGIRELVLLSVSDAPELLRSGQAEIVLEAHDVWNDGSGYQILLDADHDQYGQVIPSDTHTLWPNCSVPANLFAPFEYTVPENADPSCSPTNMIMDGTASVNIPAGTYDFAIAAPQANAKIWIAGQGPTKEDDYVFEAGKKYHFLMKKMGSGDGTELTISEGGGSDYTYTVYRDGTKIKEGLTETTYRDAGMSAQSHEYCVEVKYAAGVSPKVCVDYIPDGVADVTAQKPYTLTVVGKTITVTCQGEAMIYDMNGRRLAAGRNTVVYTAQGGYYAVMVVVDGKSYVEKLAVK

Binder	OD450nm	Ratio OD(Variant)/OD(WT)
B1	0.45	0.892
B2	0.633	0.8
B3	0.447 and 0.402	0.906 and 0.815
B4	0.809	0.92
B5	0.838 and 0.844 and 0.853	0.953 and 0.96 and 0.97
B6	0.706	0.856
B7	0.759 and 0.743	0.863 and 0.845
B8	0.722	0.817
B9	0.44 and 0.428	0.892 and 0.867
B10	0.796	0.905
B11	0.701	0.886
B12	0.452	0.916
B13	0.442 and 0.431	0.876 and 0.854
B14	0.793 and 0.791	0.962 and 0.959
B15	0.731 and 0.718 and 0.747	0.864 and 0.848 and 0.882
B16	0.406	0.823
B17	0.423	0.857
B18	0.754 and 0.716	0.947 and 0.899
B19	0.717 and 0.783 and 0.718	0.847 and 0.925 and 0.848
B20	0.697	0.866
B21	0.814 and 0.807	0.962 and 0.953

Binder	OD450nm	Ratio OD(Variant)/OD(WT)
B22	0.646	0.817
B23	0.778	0.984
B24	0.744	0.941
B25	0.668	0.845
B26	0.471 and 0.428	0.934 and 0.848
B27	0.435 and 0.429	0.881 and 0.869
B28	0.686	0.861
B29	0.429	0.85
B30	0.44 and 0.439	0.872 and 0.87
B31	0.843 and 0.849	0.958 and 0.965
B32	0.71	0.807
B33	0.772 and 0.713	0.878 and 0.811
B34	0.798	0.903
B35	0.648	0.819
B36	0.459	0.91
B37	0.652	0.81
B38	0.855 and 0.788 and 0.824	0.972 and 0.896 and 0.937
B39	0.8	0.91
B40	0.748	0.85
B41	0.438	0.888
B42	0.826 and 0.775	0.976 and 0.916
